Measurements published in patent publication US10028997B2, “Systems and methods for attracting and trapping brain cancer cells” (GEISINGER HEALTH SYSTEM, priority 2014, dated 2018).

Assays:
Type in all cases: cell-based
[1] = test system: human glioblastoma stem cells (hGSCs); test: Boyden chamber migration, crystal violet staining and microscope cell count; details: for hGSC migration (cells counted in bottom chamber): 10 μg/ml in bottom chamber, 16 hours, serum free medium, p<0.0001, FIGS. 3B and 3C
Method: Finally, human glioblastoma cell migration was also observed under the microscope. hGSCs were seeded in the upper Boyden chamber in serum free medium. Lcn2 was added to the bottom chamber at 10 μg/ml and cells were allowed to migrate for 16 hours. The bottom chamber was fixed and stained with crystal violet and cells were counted using a Zeiss Phase Contrast microscope at 10× magnification. […] To show the specificity of the Lcn2 chemotactic effect and to determine if the effect of Lcn2 on migration is […], Lcn2 was denatured by boiling in SDS buffer for 10 minutes and then added to the bottom Boyden chamber.

[2] = test system: human glioblastoma stem cells (hGSCs); test: XCELLIGENCE RTCA CIM-16 (Boyden chamber) migration of hGSCs, Lcn2 in lower chamber
Method: Human glioblastoma stem cells (hGSCs) were seeded in an XCELLIGENCE RTCA CIM-16 plate, which functions as a Boyden chamber, in serum-free media. The XCELLIGENCE system (ACEA BIOSCIENCES, INC.) measures total surface area covered by cell membrane by detecting the electrical impedance, using microelectronic biosensor technology (Ness et al., NATURE COMMUNICATIONS 4:1912 (2013)). The lower chamber was supplemented with 10 μg/ml Lcn2 or 10% serum. Cell migration from the upper to the lower chamber was measured and plotted over time and the migration slope was calculated using RTCA DP software (ACEA BIOSCIENCES, INC.). The experiment was repeated four times and the results are presented as average+/−standard deviation.

[3] = test system: human glioblastoma stem cells (hGSCs); test: Chemotaxis assay plate, linear Lcn2 gradient; details: linear gradient of 10 μg/ml Lcn2 for 8 hours, FIGS. 4A-C
human glioblastoma cells = test: XCELLIGENCE migration after Lcn2 pre-treatment of glioblastoma cells; details: pre-treated with 10 μg/ml Lcn2 for 24 hours; p<0.0001; FIGS. 2B and 2C
Method: To further determine the effect of Lcn2 on glioblastoma cell migration, glioblastoma cells were first pre-treated with 10 μg/ml Lcn2 for 24 hours. Migration was subsequently quantified using the XCELLIGENCE system in the presence or absence of Lcn2 as a chemo-attractant in the lower Boyden chamber.

Molecule | hGSC migration (cells counted in bottom chamber) [1] | migration of hGSCs from upper to lower chamber ([2]; 10 μg/ml Lcn2 in lower chamber vs 10% serum, serum-free media, FIG. 2A) | attraction of hGSCs toward the bottom chamber containing the Lcn2 depot ([2]; 10 μg/ml Lcn2 in lower chamber, FIG. 3A) | migration towards the opposite direction (chemokinesis) [3] | migration toward the linear Lcn2 gradient (chemotaxis) ([3]; p<0.005) | migration after pre-treatment with Lcn2 (human glioblastoma cells) | rate of migration of hGSCs, lipocalin-2 in one chamber versus PBS in one chamber or lipocalin-2 in both chambers ([1]; FIGS. 3B, 3C)
denatured Lcn2: Lcn2 denatured by boiling in SDS buffer for 10 minutes (protein) QDSTSDLIPAPPLSKVPLQQNFQDNQFQGKWYVVGLAGNAILREDKDPQKMYATIYELKEDKSYNVTSVLFRKKKCDYWIRTFVPGCQPGEFTLGNIKSYPGLTSYLVRVVSTNYNQHAMVFFKKVSQNREYFKITLYGRTKELTSELKENFIRFSKSLGLPENHIVFPVPIDQCIDG | No effect on hGSC migration was observed |  |  |  |  |  | 
lipocalin-2 (protein, listed as Homo sapiens, member of the lipocalin family, a 23 kDa hydrophilic protein) MPLGLLWLGLALLGALHAQAQDSTSDLIPAPPLSKVPLQQNFQDNQFQGKWYVVGLAGNAILREDKDPQKMYATIYELKEDKSYNVTSVLFRKKKCDYWIRTFVPGCQPGEFTLGNIKSYPGLTSYLVRVVSTNYNQHAMVFFKKVSQNREYFKITLYGRTKELTSELKENFIRFSKSLGLPENHIVFPVPIDQCIDG | a significant increase in hGSC migration was observed | increases the migration of hGSCs as compared to serum alone | significantly attracts hGSCs toward the bottom chamber | no difference in migration towards the opposite direction | increased migration toward the linear Lcn2 gradient | induced a significant increase in migration | increases the rate of migration of human glioblastoma stem cells (hGSCs) to the lipocalin-2-containing chamber
